Substitutions are numbered along the chain they refer to.
B1: 4A7 nanobody (VHH)
VHH: EVQLVESGGGLVQAGDSLRLGCAASGRTFSTNVMGWFRQAPGKEREFVSAISRAGSTYSADSVKGRFTISRDNAENTVYLQMNSLKPEDTAVYYCAAGSSPTAIFGKSGMDYWGKGTLVTVSS
notes: Prokaryotically expressed VHH; also called anti-PD-L1 nanobody 4A7
B2: 4A7 hu-5 (Fc fusion)
chain: EVQLLESGGGLVQPGGSLRLSCAASGRTFSTNVMGWFRQAPGKGLEFVSAISRAGSTYSADSVKGRFTISRDNSKNTLYLQMNSLRAEDTAVYYCAAGSSPTAIFGKSGMDYWGQGTQVTVSSGGGGSGGGGSDKTHTCPPCPAPEAAGAPSVFLFPPKPKDTLMISRTPEVTCVVVDVSHEDPEVKFNWYVDGVEVHNAKTKPREEQYNSTYRVVSVLTVLHQDWLNGKEYKCAVSNKALPAPIEKTISKAKGQPREPQVYTLPPSRDELTKNQVSLTCLVKGFYPSDIAVEWESNGQPENNYKTTPPVLDSDGSFFLYSKLTVDKSRWQQGNVFSCSVMHEALHNHYTQKSLSLSP
notes: Humanized VHH-Fc antibody
B3: 4A7 hu-13 (Fc fusion)
chain: B2 chain with T31S, N32Y
notes: Humanized VHH-Fc antibody
B4: 4A7 hu-6 (Fc fusion)
chain: B2 chain with P14A
notes: Humanized VHH-Fc antibody
B5: 4A7 hu-4 (Fc fusion)
chain: B2 chain with F37V
notes: Humanized VHH-Fc antibody
B6: 4A7 hu-7 (Fc fusion)
chain: B2 chain with L45R
notes: Humanized VHH-Fc antibody
B7: 4A7 hu-9 (Fc fusion)
chain: B2 chain with T31S, N32Y, G35S, F37V, F47W, S59Y
notes: Humanized VHH-Fc antibody
B8: 4A7 hu-10 (Fc fusion)
chain: B2 chain with T31S, N32Y, F37V, F47W
notes: Humanized VHH-Fc antibody
B9: 4A7 hu-15 (Fc fusion)
chain: B2 chain with T31S, N32Y, L45R
notes: Humanized VHH-Fc antibody
B10: 4A7 hu-16 (Fc fusion)
chain: B2 chain with T31S, N32Y, G44E, L45R
notes: Humanized VHH-Fc antibody
B11: 4A7 hu-14 (Fc fusion)
chain: B2 chain with P14A, T31S, N32Y
notes: Humanized VHH-Fc antibody
B12: 4A7 hu-11 (Fc fusion)
chain: B2 chain with T31S, N32Y, F47W
notes: Humanized VHH-Fc antibody
B13: 4A7 hu-12 (Fc fusion)
chain: B2 chain with T31S, N32Y, F37V
notes: Humanized VHH-Fc antibody
B14: 4A7 hu-8 (Fc fusion)
chain: B2 chain with G44E, L45R
notes: Humanized VHH-Fc antibody
B15: 4A7 hu-3 (Fc fusion)
chain: B2 chain with F47W
notes: Humanized VHH-Fc antibody
B16: 4A7 hu-1 (Fc fusion)
chain: B2 chain with G35S, F37V, F47W, S59Y
notes: Humanized VHH-Fc antibody
B17: 4A7 hu-2 (Fc fusion)
chain: B2 chain with F37V, F47W
notes: Humanized VHH-Fc antibody
B18: 7B11 (Fc fusion)
chain: EVQLVESGGGLVQAGGSLRLSCAASGGTFLTYGMGWFRQAPGKEREFVAAINWSGSMTNYADSVKGRSTISRDNARNTVYLQMISLKPEDTAVYYCAAKTGAVAYIQKNEYDYWGQGTQVTVSSGGGGSGGGGSDKTHTCPPCPAPEAAGAPSVFLFPPKPKDTLMISRTPEVTCVVVDVSHEDPEVKFNWYVDGVEVHNAKTKPREEQYNSTYRVVSVLTVLHQDWLNGKEYKCAVSNKALPAPIEKTISKAKGQPREPQVYTLPPSRDELTKNQVSLTCLVKGFYPSDIAVEWESNGQPENNYKTTPPVLDSDGSFFLYSKLTVDKSRWQQGNVFSCSVMHEALHNHYTQKSLSLSP
notes: also called 7B11 VHH-Fc antibody (260-7-B11 fused to human IgG1 Fc)
B19: 7B11_huGS_HM4 (Fc fusion)
chain: B18 chain with A14P, E44G, R45L, S68F, R76K, I84N, K87R, P88A
notes: Humanized VHH-Fc antibody
B20: 7B11_huGS_HM1 (Fc fusion)
chain: B18 chain with A14P, E44G, R45L, S68F, R76K, I84N, K87R, P88A, Q119L
notes: Humanized VHH-Fc antibody
B21: 7B11_huBSM1 (Fc fusion)
chain: B18 chain with E46V, S68F, R76K, I84R, K87T, P88S
notes: Humanized VHH-Fc antibody
B22: 7B11_huGS1 (Fc fusion)
chain: EVQLVESGGGLVQPGGSLRLSCAASGGTFLTYGMGWVRQAPGKGLEWVAAINWSGSMTNYADSVKGRFTISRDNAKNTVYLQMNSLRAEDTAVYYCAAKTGAVAYIQKNEYDYWGQGTLVTVSSGGGGSGGGGSDKTHTCPPCPAPEAAGAPSVFLFPPKPKDTLMISRTPEVTCVVVDVSHEDPEVKFNWYVDGVEVHNAKTKPREEQYNSTYRVVSVLTVLHQDWLNGKEYKCAVSNKALPAPIEKTISKAKGQPREPQVYTLPPSRDELTKNQVSLTCLVKGFYPSDIAVEWESNGQPENNYKTTPPVLDSDGSFFLYSKLTVDKSRWQQGNVFSCSVMHEALHNHYTQKSLSLSP
notes: Humanized VHH-Fc antibody
B23: 7B11_huBSM_HM2 (Fc fusion)
chain: B18 chain with S68F, R76K, I84R, K87T, P88S, Q119L
notes: Humanized VHH-Fc antibody
B24: 7B11_huBSM_HM1 (Fc fusion)
chain: B18 chain with E44G, R45L, E46V, S68F, R76K, I84R, K87T, P88S
notes: Humanized VHH-Fc antibody

These binders were tested against T1, mouse PD-L1 on CHO-mPDL1 cells (mouse, UniProt Q9EP73 19-290) (assay: flow cytometry competition on CHO-mPDL1 cells, competitor mouse PD-1-hFc 1.25 ug/mL).
T1 construct: whole, on cells
T1 sequence (Q9EP73 19-290): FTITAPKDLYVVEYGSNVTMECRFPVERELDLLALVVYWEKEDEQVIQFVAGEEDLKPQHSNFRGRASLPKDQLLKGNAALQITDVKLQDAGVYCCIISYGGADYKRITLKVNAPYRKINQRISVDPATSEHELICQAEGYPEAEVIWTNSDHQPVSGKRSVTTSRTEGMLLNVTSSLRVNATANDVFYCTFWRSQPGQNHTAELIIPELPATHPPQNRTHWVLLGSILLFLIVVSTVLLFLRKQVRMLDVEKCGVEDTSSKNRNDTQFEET
Method: (§1) CHO-huPDL1, CHO-mPDL1, and CHO-cynoPDL1 cells were respectively taken, washed with PBS, and resuspended with 1% BSA. Then 1×10⁵ cells per well were added to a 96-well V-bottom plate. […] After washing with PBS, PE anti-human Fc (Biolegend, 410708) was added and incubated on ice for 30 min. After washing with PBS, a flow cytometer was used for detection. IC₅₀ was fitted with experimental data by GraphPad Prism.
In the case of B1, the IC50 is reported as 1.83 nM.

The binders below were run against T2, human PD-L1 protein (ACRO, PD1-H5258) (human, UniProt Q9NZQ7 19-238) (assay: Carterra HC30M chip, antibody captured via anti-DYKDDDDK, PD-L1 as analyte).
T2 construct: Bought protein; also called Human PDL1-Fc
T2 sequence (Q9NZQ7 19-238): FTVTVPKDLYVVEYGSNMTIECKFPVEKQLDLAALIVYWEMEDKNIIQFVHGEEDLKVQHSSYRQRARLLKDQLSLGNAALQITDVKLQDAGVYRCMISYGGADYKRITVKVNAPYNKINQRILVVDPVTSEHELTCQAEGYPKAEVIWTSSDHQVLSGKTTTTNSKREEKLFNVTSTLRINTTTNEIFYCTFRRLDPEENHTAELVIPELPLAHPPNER
Method: (§2) The anti-[…] antibody was bound to the HC30M chip via amino coupling, then 2 μg/mL of humanized PD-L1 single-domain antibody was captured. […] Kinetic constants were obtained by fitting with Carteria software.
In the case of B2, the Kd is reported as 141 nM.
B3 gave a Kd of 58.7 nM.
For B4, the Kd was 136 nM.
B5 was tested, and the Kd was 175 nM.
B6 was tested, and the Kd was 127 nM.
B7 gave a Kd of 652 nM.
B8 showed a Kd of 805 nM.
Binder B9 has a Kd of 54.9 nM.
B10 showed a Kd of 45.1 nM.
In the case of B11, the Kd is reported as 60.9 nM.
B12 was tested, and the Kd was 796 nM.
For B13, the Kd was 79 nM.
B14 gave a Kd of 92.7 nM.
Work on B15 yielded a Kd of 1630 nM.

These binders were tested against T3, monkey PD-L1 protein (Kactus Biosystems, PDL-CM210) (monkey) in the same assay as above.
T3 construct: Bought protein; also called Monkey PDL1-Fc
Method: as §2
Binder B2 has a Kd of 94.3 nM.
B3 was tested, and the Kd was 72.8 nM.
B4 was tested, and the Kd was 99 nM.
With B5 the Kd was 112 nM.
Work on B16 yielded a Kd of 1320 nM.
With B6 the Kd was 61.7 nM.
With B7 the Kd was 609 nM.
Work on B8 yielded a Kd of 622 nM.
With B9 the Kd was 60.7 nM.
B10 showed a Kd of 75.3 nM.
Work on B11 yielded a Kd of 76.5 nM.
With B12 the Kd was 828 nM.
Binder B17 has a Kd of 367 nM.
B13 gave a Kd of 94.5 nM.
B14 was tested, and the Kd was 57.5 nM.
With B15 the Kd was 599 nM.

These binders were tested against T4, mouse PD-L1 protein (ACRO, PD1-M5251) (mouse, UniProt Q9EP73 19-238) in the same assay as above.
T4 construct: Bought protein; also called Mouse PDL1-Fc
T4 sequence (Q9EP73 19-238): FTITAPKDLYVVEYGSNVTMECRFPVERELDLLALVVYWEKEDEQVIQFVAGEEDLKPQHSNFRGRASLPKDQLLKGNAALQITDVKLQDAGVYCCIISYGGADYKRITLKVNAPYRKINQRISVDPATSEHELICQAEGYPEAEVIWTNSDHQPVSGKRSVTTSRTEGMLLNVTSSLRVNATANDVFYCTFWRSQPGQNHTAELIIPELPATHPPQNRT
Method: as §2
B2 was tested, and the Kd was 9.72 nM.
Binder B3 has a Kd of 10.7 nM.
Work on B4 yielded a Kd of 9.59 nM.
B5 gave a Kd of 21 nM.
With B16 the Kd was 143 nM.
For B6, the Kd was 9.76 nM.
Binder B7 has a Kd of 146 nM.
With B8 the Kd was 197 nM.
Work on B9 yielded a Kd of 9.97 nM.
B10 was tested, and the Kd was 9.82 nM.
B11 showed a Kd of 9.7 nM.
For B12, the Kd was 154 nM.
For B17, the Kd was 408 nM.
For B13, the Kd was 19.5 nM.
B14 gave a Kd of 10.4 nM.
Work on B15 yielded a Kd of 122 nM.

These binders were tested against T5, human PD-L1 on GS-C2 cells (cells overexpressing human PD-L1, GenScript, M00613) (human, UniProt Q9NZQ7 19-290) (assay: flow cytometry competition on GS-C2 cells, competitor human PD-1-mFc 1.25 ug/mL).
T5 construct: whole, on cells; also called human PD-L1 cells
T5 sequence (Q9NZQ7 19-290, one chain of several): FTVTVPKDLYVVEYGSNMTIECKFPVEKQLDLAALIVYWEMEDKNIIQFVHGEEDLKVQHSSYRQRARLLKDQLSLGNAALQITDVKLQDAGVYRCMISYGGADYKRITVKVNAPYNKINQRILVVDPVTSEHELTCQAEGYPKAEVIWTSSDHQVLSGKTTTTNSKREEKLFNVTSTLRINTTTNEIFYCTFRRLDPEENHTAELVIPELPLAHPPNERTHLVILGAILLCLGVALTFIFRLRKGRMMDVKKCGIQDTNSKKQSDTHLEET
Source text: (§3) After washing with PBS, a flow cytometer was used for detection.
B18 showed an IC50 of 0.221 nM.
B19 showed an IC50 of 0.24 nM.

These binders were tested against T6, monkey PD-L1 (Cyno-PD-L1) on cells (monkey (cyno)) (assay: flow cytometry on 293F-cyno PD-L1 cells).
T6 construct: whole, on cells; also called CHO-cynoPDL1; 293F-cyno PD-L1 cells
Source text: as §3
B18 showed an EC50 of 1.58 nM.
In the case of B19, the EC50 is reported as 2 nM.

Each binder was assayed against T7, human PD-L1 on CHO-huPDL1 cells (human, UniProt Q9NZQ7 19-290) (assay: flow cytometry competition on CHO-huPDL1 cells, competitor human PD-1-hFc 1.25 ug/mL).
T7 construct: whole, on cells; also called CHO-hPDL1
T7 sequence (Q9NZQ7 19-290): as the sequence (Q9NZQ7 19-290, one chain of several) above
Method: as §1
Binder B1 has an IC50 of 1.35 nM.

Molecular target: T2, human PD-L1 protein (ACRO, PD1-H5258)
Assay: Carterra HC30M chip, antibody captured via anti-DYKDDDDK, PD-L1 as analyte
Remark: another data set of the same source
Method: (§4) The anti-[…] antibody was bound to the HC30M chip via amino coupling, then […] of humanized PD-L1 single-domain antibody was captured. After the baseline was stabilized, gradient diluted human PD-L1 protein (ACRO, PD1-H5258) and monkey PD-L1 protein (Kactus Biosystems, PDL-CM210) (starting from 100 nM, gradient dilution) were flowed over the chip from low to high concentrations, with a binding time of 8 minutes and a dissociation time of 20 minutes. Kinetic constants were obtained by fitting with Carteria software.
For B20, the Kd was 0.0294 nM.
In the case of B21, the Kd is reported as 0.0372 nM.
In the case of B19, the Kd is reported as 0.035 nM.
In the case of B22, the Kd is reported as 0.0815 nM.
Work on B23 yielded a Kd of 0.0362 nM.
In the case of B24, the Kd is reported as 0.0382 nM.

Molecular target: T3, monkey PD-L1 protein (Kactus …)
Assay: as above
Remark: another data set of the same source
Method: as §4
Binder B20 has a Kd of 0.0252 nM.
With B21 the Kd was 0.0294 nM.
B19 was tested, and the Kd was 0.0326 nM.
In the case of B22, the Kd is reported as 0.0588 nM.
In the case of B23, the Kd is reported as 0.0307 nM.
Binder B24 has a Kd of 0.0347 nM.

What follows are binders tested against T6, monkey PD-L1 (Cyno-PD-L1) on cells (assay: flow cytometry competition on CHO-cynoPDL1 cells, competitor monkey PD-1-hFc 1.25 ug/mL).
Method: as §1
With B1 the IC50 was 3.55 nM.

What follows are binders tested against T5, human PD-L1 on GS-C2 cells (cells …) (assay: flow cytometry on GS-C2 cells).
Source text: as §3
For B18, the EC50 was 0.642 nM.
In the case of B19, the EC50 is reported as 0.729 nM.

The binders below were run against T5, human PD-L1 on GS-C2 cells (cells …) (assay: cell-based or functional assay).
In the case of B18, the “EC50 (nM), blocking of T cell PD-1/PD-L1 signaling pathway (GS-C2 cells with Jurket-NFAT-PD1 cells, luciferase)” value is reported as 2.11 nM.
B19 was tested, and the “EC50 (nM), blocking of T cell PD-1/PD-L1 signaling pathway (GS-C2 cells with Jurket-NFAT-PD1 cells, luciferase)” value was 1.97 nM.

These binders were tested against T2, human PD-L1 protein (ACRO, PD1-H5258) (assay: Carterra HC30M chip, nanobody captured via anti-DYKDDDDK, PD-L1 as analyte).
Source text: (§5) Kinetic constants were obtained by fitting with Carteria software.
Binder B1 has a Kd of 147 nM.

These binders were tested against T3, monkey PD-L1 protein (Kactus …) in the same assay as above.
Source text: as §5
With B1 the Kd was 221 nM.

What follows are binders tested against T4, mouse PD-L1 protein (ACRO, PD1-M5251) in the same assay as above.
Source text: as §5
In the case of B1, the Kd is reported as 99.1 nM.

Reference: patent US20260201058A1 (SICHUAN HUIYU PHARMACEUTICAL, published 2026)
